From the supplement of paper PMC7877785
± gives the uncertainty stated by the source.

Test: self-splicing fitness, log relative to wild type (ln ratio); higher = more splicing; Tetrahymena group I intron in knt gene, E. coli kanamycin selection, DiMSum; sequences stand for … in CUCUCU…GGAGGGAAAAGUUAUCAGGCAUGCACCUGGUAGCUAGUCUUUAAACCAAUAGAUUGCAUCGGUUUAAAAGGCAAGACCGUCAAAUUGCGGGAAAGGGGUCAACAGCCGUUCAGUACCAAGUCUCAGGGGAAACUUUGAGAUGGCCUUGCAAAGGGUAUGGUAAUAAGCUGACGGACAUGGUCCUAACCACGCAGCCAAGUCCUAAGUCAACAGAUCUUCUGUUGAUAUGGAUGCAGUUCACAGACUAAAUGUCGGUCGGGGAAGAUGUAUUCUUCUCAUAAGAUAUAGUCGGACCUCUCCUUAAUGGGAGCUAGCGGAUGAAGUGAUGCAACACUGGAGCCGCUGGGAACUAAUUUGUAUGCGAAAGUAUAUUGAUUAGUUUUGGAGUACUCGUGGUCG
Summary of the method: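 Colonies from six replicate transformations of E. coli BL21(DE3) were pooled and amplicon-sequenced on an Illumina HiSeq 2500. The library placed an intron with all eight P1ex-region nucleotides randomised inside the knt kanamycin-resistance gene on pET-22b(+), and cells grew overnight at 37°C or 30°C on LB agar with or without 25 μg/mL kanamycin (plus 100 μg/mL carbenicillin, 50 μM IPTG, 0.2% rhamnose). Fitness is the DiMSum error-weighted combination of wild-type-normalised replicate fold changes, kanamycin versus none.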

Row | Sequence | self-splicing fitness (ln) (30 °C) | self-splicing fitness (ln) (37 °C)
1 | ACCCAGCAAUAUUACGGAGU | -3.7 ± 0.14 | -1.8 ± 0.1
2 | ACCCAGCAAUAUUACGGCCC | -0.0475 ± 0.11 | -0.539 ± 0.15
3 | ACCCAGCAAUAUUACGGCGC | -0.619 ± 0.062 | 0.132 ± 0.096
4 | ACCCAGCAAUAUUACGGCGG | -2.11 ± 0.08 | -1.04 ± 0.11
5 | ACCCAGCAAUAUUACGGGAA | -0.235 ± 0.044 | -0.102 ± 0.055
6 | ACCCAGCAAUAUUACGGGCA | 0.0145 ± 0.067 | -0.0091 ± 0.077
7 | ACCCAGCAAUAUUACGGGCC | -3.49 ± 0.18 | -1.45 ± 0.14
8 | ACCCAGCAAUAUUACGGUCA | -1.55 ± 0.067 | -0.429 ± 0.069
9 | ACCCAGCAAUAUUACGGUGA | -0.516 ± 0.043 | 0.305 ± 0.059
10 | ACCCAGCAAUAUUACGUACA | -1.85 ± 0.087 | -0.804 ± 0.085
11 | ACCCAGCAAUAUUACGUACC | -1.85 ± 0.12 | -1.63 ± 0.15
12 | ACCCAGCAAUAUUACGUCAU | -1.84 ± 0.049 | -0.414 ± 0.059
13 | ACCCAGCAAUAUUACGUGGU | -3.89 ± 0.11 | -2.76 ± 0.14
14 | ACCCAGCAAUAUUACGUUGC | -2.99 ± 0.089 | -0.989 ± 0.076
15 | ACCCAGCAAUAUUACGUUUC | -2.36 ± 0.062 | -1.35 ± 0.082
16 | ACCGAGCAAUAUUACGACUA | -2.66 ± 0.19 | -1.7 ± 0.17
17 | ACCGAGCAAUAUUACGAGAC | -3.81 ± 0.25 | -2.84 ± 0.4
18 | ACCGAGCAAUAUUACGAGAU | -2.96 ± 0.12 | -2.48 ± 0.18
19 | ACCGAGCAAUAUUACGAUGU | -2.71 ± 0.12 | -1.86 ± 0.12
20 | ACCGAGCAAUAUUACGAUUC | -3.37 ± 0.25 | -3.31 ± 0.31
21 | ACCGAGCAAUAUUACGCCGA | -2.48 ± 0.47 | -2.74 ± 0.38
22 | ACCGAGCAAUAUUACGCCGC | -2.66 ± 0.32 | -2.1 ± 0.29
23 | ACCGAGCAAUAUUACGCCUA | – | -1.93 ± 0.28
24 | ACCGAGCAAUAUUACGCGGU | -3.02 ± 0.18 | -1.7 ± 0.2
25 | ACCGAGCAAUAUUACGGAGC | -3.33 ± 0.18 | -1.73 ± 0.13
26 | ACCGAGCAAUAUUACGGCGU | -0.733 ± 0.082 | -0.172 ± 0.11

Row | Sequence | self-splicing fitness (ln) (30 °C) | self-splicing fitness (ln) (37 °C)
27 | ACCGAGCAAUAUUACGGGAA | -2.52 ± 0.21 | -2.56 ± 0.22
28 | ACCGAGCAAUAUUACGGGAG | -3.54 ± 0.2 | -2.69 ± 0.3
29 | ACCGAGCAAUAUUACGGUCG | -3.22 ± 0.23 | -1.68 ± 0.15
30 | ACCGAGCAAUAUUACGGUGC | -2.97 ± 0.21 | -3.33 ± 0.37
31 | ACCGAGCAAUAUUACGUACU | -2.31 ± 0.13 | -0.966 ± 0.14
32 | ACCGAGCAAUAUUACGUAUA | -3.96 ± 0.35 | -2.6 ± 0.27
33 | ACCGAGCAAUAUUACGUAUU | -3.21 ± 0.16 | -1.98 ± 0.17
34 | ACCGAGCAAUAUUACGUCAG | -3.7 ± 0.16 | -2.73 ± 0.17
35 | ACCGAGCAAUAUUACGUCCU | -1.71 ± 0.1 | -0.0861 ± 0.11
36 | ACCGAGCAAUAUUACGUCGG | -4.23 ± 0.39 | -3.13 ± 0.35
37 | ACCGAGCAAUAUUACGUGGG | -2.62 ± 0.18 | -2.87 ± 0.2
38 | ACCUAGCAAUAUUACGAAGC | -1.56 ± 0.11 | -0.832 ± 0.15
39 | ACCUAGCAAUAUUACGACUG | -2.84 ± 0.15 | -1.46 ± 0.18
40 | ACCUAGCAAUAUUACGAGAC | -3.14 ± 0.4 | -1.89 ± 0.24
41 | ACCUAGCAAUAUUACGAGCC | -2.81 ± 0.19 | -2.37 ± 0.3
42 | ACCUAGCAAUAUUACGAGUG | -1.43 ± 0.077 | -0.982 ± 0.092
43 | ACCUAGCAAUAUUACGAGUU | -2.28 ± 0.087 | -1.24 ± 0.1
44 | ACCUAGCAAUAUUACGAUCG | -1.19 ± 0.083 | -0.6 ± 0.1
45 | ACCUAGCAAUAUUACGCCCA | -1.16 ± 0.11 | -0.343 ± 0.12
46 | ACCUAGCAAUAUUACGCCCG | -1.73 ± 0.27 | -1.13 ± 0.28
47 | ACCUAGCAAUAUUACGCCGC | -2.21 ± 0.32 | -2.05 ± 0.4
48 | ACCUAGCAAUAUUACGCGGG | -3.58 ± 0.24 | –
49 | ACCUAGCAAUAUUACGCUAU | -1.89 ± 0.084 | -1.1 ± 0.1
50 | ACCUAGCAAUAUUACGGAUC | -2.65 ± 0.13 | -1.35 ± 0.15
51 | ACCUAGCAAUAUUACGGCCG | -2.22 ± 0.43 | -1 ± 0.34
52 | ACCUAGCAAUAUUACGGCUG | -4.76 ± 0.36 | -2.32 ± 0.18

Row | Sequence | self-splicing fitness (ln) (30 °C) | self-splicing fitness (ln) (37 °C)
53 | ACCUAGCAAUAUUACGGCUU | -0.695 ± 0.076 | 0.252 ± 0.098
54 | ACCUAGCAAUAUUACGGGCA | -0.58 ± 0.11 | 0.19 ± 0.13
55 | ACCUAGCAAUAUUACGGUAA | -2.62 ± 0.13 | -1.89 ± 0.13
56 | ACCUAGCAAUAUUACGUAAG | -1.53 ± 0.065 | -0.172 ± 0.081
57 | ACCUAGCAAUAUUACGUGGG | -3.54 ± 0.17 | -3.4 ± 0.24
58 | ACCUAGCAAUAUUACGUGGU | -3.6 ± 0.14 | -2.95 ± 0.16
59 | ACCUAGCAAUAUUACGUGUU | -3.18 ± 0.1 | -1.4 ± 0.085
60 | ACCUAGCAAUAUUACGUUGG | -2.35 ± 0.092 | -2.46 ± 0.14
61 | ACGAAGCAAUAUUACGAAUA | -2.01 ± 0.26 | 0.937 ± 0.18
62 | ACGAAGCAAUAUUACGACUG | -0.657 ± 0.09 | -0.396 ± 0.098
63 | ACGAAGCAAUAUUACGAGUC | -4.22 ± 0.24 | -2.21 ± 0.19
64 | ACGAAGCAAUAUUACGAUCU | -0.659 ± 0.081 | -0.244 ± 0.082
65 | ACGAAGCAAUAUUACGCAAG | -1.02 ± 0.14 | -0.171 ± 0.18
66 | ACGAAGCAAUAUUACGCAGG | -1.67 ± 0.11 | -1.44 ± 0.12
67 | ACGAAGCAAUAUUACGCGGG | -1.62 ± 0.086 | -0.782 ± 0.1
68 | ACGAAGCAAUAUUACGCGUA | -1.27 ± 0.11 | -0.335 ± 0.084
69 | ACGAAGCAAUAUUACGCUAA | -1.22 ± 0.079 | -0.582 ± 0.083
70 | ACGAAGCAAUAUUACGCUGA | -0.881 ± 0.11 | -0.99 ± 0.1
71 | ACGAAGCAAUAUUACGCUGC | -3.95 ± 0.25 | -1.35 ± 0.18
72 | ACGAAGCAAUAUUACGCUGG | -1.07 ± 0.098 | -0.428 ± 0.11
73 | ACGAAGCAAUAUUACGGAAC | -3.19 ± 0.26 | -1.95 ± 0.25
74 | ACGAAGCAAUAUUACGGGCA | -1.46 ± 0.068 | -0.631 ± 0.075
75 | ACGAAGCAAUAUUACGGUCC | -1.92 ± 0.21 | -0.717 ± 0.21
76 | ACGAAGCAAUAUUACGUAAA | -2.9 ± 0.18 | -1.45 ± 0.19
